The text below walks through data of patent publication US20200121712A1, “AGENT TO BE APPLIED TO OPHTHALMIC DEVICE” (SEIKAGAKU CORPORATION, priority 2015, published 2020).

The test system of this data set is mucin. Description: Viscosity increasing effect by interaction with mucin (rotatory viscometer). As to conditions: for rate of increase in viscosity (increase in value of viscosity divided by viscosity of sample 3): 1.0 w/v % mixed with 20 w/v % mucin solution (final concentration 0.5 w/v %). Type of data set: physicochemical. Here is the method: In general, with respect to a film of a lubricant formed on a friction surface for reducing friction under the maintained state of fluid friction, the higher the viscosity of the lubricant, the higher the stability of the film of the lubricant. Therefore, the friction reducing effect of the cinnamic acid derivative was evaluated using, as an index, the increase in viscosity due to the interaction of the derivative with mucin contained in the tear fluid.
HA-3APC prepared in Example 1 was dissolved in PBS (pH 7.4) to thereby prepare solutions having concentrations of 1 w/v %, 0.5 w/v % and 0.25 w/v %.
Similarly, HA was dissolved in PBS (pH 7.4) to thereby prepare an HA solution having a concentration of 1 w/v %.
0.4 mL of each of these samples (1 w/v % HA-3APC, 0.5 w/v % HA-3APC, 0.25 w/v % HA-3APC and 1 w/v % HA) having added thereto 0.4 mL of 20 w/v % mucin was sample 1 for measurement.
A sample of 0.4 mL of 20 w/v % mucin having added thereto 0.4 mL of PBS was sample 2 for measurement.
A sample prepared in substantially the same manner as in sample 1 for measurement except that 0.4 mL of PBS was added in place of mucin was sample 3 for measurement.
Each sample for measurement was subjected, immediately after thorough mixing, to measurement of viscosity (shear rate: 100 S^−1, temperature: 35° C.) using a rotatory viscometer (ADVANCED RHEOMETER (TA Instruments)), and increase in value of viscosity was obtained by the following formula.
Increase in value of viscosity=μ1−μ2−μ3
μ1: Viscosity of sample 1 for measurement
μ2: Viscosity of sample 2 for measurement
μ3: Viscosity of sample 3 for measurement
Comparison of the strength of the interaction with mucin was carried out between HA and HA-3APC based on the standardized rate of increase in viscosity obtained by dividing the increase in value of viscosity with the viscosity of sample 3 for measurement. Such a means for standardization is frequently used in comparison of interactions with mucin among different test substances (for example, J. Ocul Pharmacol Ther. 2007.23(6): 541-50).

“HA having covalently bonded thereto a cinnamic acid aminopropyl ester [HA-3APC]”: the “increase in value of viscosity (strength of interaction with mucin)” value (0.25, 0.5 and 1.0 w/v % mixed with 20 w/v % mucin (final 0.125, 0.25, 0.5 w/v %), shear rate 100 S^-1, 35° C.) is recorded as “increased depending on the concentration”. Under “1.0 w/v % (final concentration 0.5 w/v %) with 20 w/v % mucin”, the “rate of increase in viscosity relative to that of HA” value is “about 1.5 times”. The “rate of increase in viscosity (increase in value of viscosity divided by viscosity of sample 3)” value (shear rate 100 S^-1, 35° C.) was 3.65.

Consider “hyaluronic acid [HA, reference compound]”, for which the “rate of increase in viscosity (increase in value of viscosity divided by viscosity of sample 3)” value (shear rate 100 S^-1, 35° C.) amounted to 2.49.
